Values of other authors in PMC2855346.

Biological target: CCR2 (Homo sapiens) (UniProt P41597)
Chain of UniProt P41597 (P41597 whole entry): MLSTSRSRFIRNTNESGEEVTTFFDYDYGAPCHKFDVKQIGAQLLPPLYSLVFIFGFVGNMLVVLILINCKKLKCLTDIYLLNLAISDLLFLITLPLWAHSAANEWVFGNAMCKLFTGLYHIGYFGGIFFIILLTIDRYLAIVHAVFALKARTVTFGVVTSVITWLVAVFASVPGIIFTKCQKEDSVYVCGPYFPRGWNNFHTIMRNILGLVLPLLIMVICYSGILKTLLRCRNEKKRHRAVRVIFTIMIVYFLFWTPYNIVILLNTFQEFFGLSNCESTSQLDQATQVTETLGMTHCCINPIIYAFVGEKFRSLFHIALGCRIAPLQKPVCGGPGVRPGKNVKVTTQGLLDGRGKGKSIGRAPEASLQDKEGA

CCL2 (from UniProt P13500)
Kd: 2.5 nM
